Here are results for 1 substance from paper PMC3466257.

This assay has as its target immobilized fibrin (UniProt P02679). The assay is described as follows: cell-free flow-based adhesion assay of protein-coated microspheres; 10-µm polystyrene microspheres coated with immunopurified CD44 or human IgG (2×10^6/ml in DPBS, 0.1% BSA) perfused for 5 min at 37°C over immobilized fibrin in a parallel plate flow chamber, 0.25 to 0.5 dyn/cm^2; interacting microspheres counted by phase-contrast videomicroscopy.

“CD44s immunopurified from PDGF-treated HL60 human myeloid cells (from UniProt P16070-12 21-361) (receptor)” showed a reduction of binding relative to CD44s from untreated HL60 cells of 30%.
